The values that follow come from patent US20260274921A1.

Experiment [1] deals with His-tagged CD47 extracellular domain (ECD) protein (Abclonal, CAT #RP01306) (human) (UniProt Q08722). Kind of experiment: ELISA; pH 6.0. To be noted: Fc fusion. In general terms: In an ELISA, binding on a coated surface is turned into a signal by an enzyme label.
For experiment [2] the target is unchanged. Kind of experiment: ELISA; pH 7.2. Particulars: Fc fusion.

Sequence of His-tagged CD47 extracellular domain (ECD) protein (Abclonal, CAT #RP01306) (human) (Q08722 19-139): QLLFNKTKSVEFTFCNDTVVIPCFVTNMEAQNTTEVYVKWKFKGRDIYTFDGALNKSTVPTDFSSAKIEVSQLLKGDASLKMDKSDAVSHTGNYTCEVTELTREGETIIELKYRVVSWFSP

Take “SIN-300, wild type SIRPαV2 IgV-IgG1 Fc fusion protein”: the EC50 was determined as 0.667 nM in experiment [1] and 3.84 nM in experiment [2].

In the case of SIN-301, SIRPαV2 K53H IgV-IgG1 Fc, the EC50 in experiment [1] was 1.35 nM. With SIN-302, SIRPαV2 R69H IgV-IgG1 Fc, the values for the EC50 in experiment [1] and in experiment [2] were 30 nM and 158 nM, respectively. With SIN-303, SIRPαV2 Q52H IgV-IgG1 Fc, the EC50 in experiment [1] came to 0.627 nM; in experiment [2], 6.92 nM. In experiment [1], SIN-304, SIRPαV2 K68H IgV-IgG1 Fc displayed an EC50 of 0.772 nM.

As usually defined, the EC50 is the concentration needed to bring the measured effect to its halfway point. A higher EC50 goes with a need for much substance.
